Where no end group is shown, it is not given here. The star is where a group is joined. Bz‑MA = benzoylmercaptoacetyl chelator, O=C(SCC(=O)*)c1ccccc1; Picolinoyl = O=C(c1ccccn1)*; Acm = CC(=O)NC*
How the values were obtained:
[1] = system: rat inflammation model (E. coli, left hindleg); assay: Biodistribution and imaging of Tc-99m labelled conjugates in a rat inflammation model; settings: for Blood / G.I. tract / Urine: Tc-99m labelled conjugate i.v.; for inflam muscle: inflamed muscle (left leg); for Uninfl muscle: non-inflamed muscle (right leg); for Inflam:Uninfl: ratio inflamed to uninflamed muscle
[2] = in vivo; cited from earlier work

Substance | Blood ([1]; Time 35 min) [% dose/g] | G.I. tract ([1]; Time 35 min) | Urine ([1]; Time 35 min) | inflam muscle ([1]; Time 35 min) [% dose/g] | Uninfl muscle ([1]; Time 35 min) [% dose/g] | Inflam:Uninfl ([1]; Time 35 min) | further results
PicSerCys(Acm) Gly TKPRTKPR: chelator PicSerCys(Acm), linking group Gly, peptide TKPRTKPR (tuftsin dimer, Seq ID no: 10); comparison conjugate ({Picolinoyl-Ser-Cys(Acm)}-GTKPRTKPR) | 0.136 | 4.2 | 16.1 | 0.071 | 0.022 | 3.2 | accumulation in blood, in words [1]: low accumulation; accumulation in the GI tract, in words [1]: low accumulation; urine levels / clearance into the urine, in words [1]: particularly low urine levels
PicSerCys(Acm) Gly RTKPR: chelator PicSerCys(Acm), linking group Gly, peptide RTKPR (Seq ID no: 11); comparison conjugate ({Picolinoyl-Ser-Cys(Acm)}-GRTKPR) | 0.169 | 15.0 | 45.4 | 0.099 | 0.033 | 3.0 | 
Bz-MA-Ser-Cys-Ser-Gly-Asp-Gly-TKPPR ({Bz‑MA}-SCSGDGTKPPR) [BzMASerCys SGDG- TKPPR] | 0.483 |  | 47.8 | 0.226 | 0.057 | 4.0 | 
PicSerCys(Acm) Gly TKPR: chelator PicSerCys(Acm), linking group Gly, native tuftsin peptide TKPR (Seq ID no: 1); comparison conjugate ({Picolinoyl-Ser-Cys(Acm)}-GTKPR) | 0.268 | 22.8 | 22.8 | 0.120 | 0.040 | 3.0 | 
PicSerCys(Acm) Gly KPPR: chelator PicSerCys(Acm), linking group Gly, peptide KPPR (Seq ID no: 9); comparison conjugate ({Picolinoyl-Ser-Cys(Acm)}-GKPPR) |  |  |  |  |  |  | Blood ([1]; Time 45 min): 0.220 % dose/g; Urine ([1]; Time 45 min): 43.5; inflam muscle ([1]; Time 45 min): 0.125 % dose/g; Uninfl muscle ([1]; Time 45 min): 0.059 % dose/g; Inflam:Uninfl ([1]; Time 45 min): 2.1
labelled tuftsin: naturally occurring tetrapeptide tuftsin TKPR (Seq. ID no:1) labelled with a radionuclide metal (also: labelled with a radionuclide metal) |  |  |  |  |  |  | accumulation in non-target tissue (gastrointestinal tract), in words [2]: accumulated in the gastrointestinal tract
Pic-Ser-Cys(Acm)-Gly-TKPPR (Picolinoyl-SC(Acm)GTKPPR) [PicSerCys(Acm) Gly TKPPR] |  |  |  |  |  |  | Blood ([1]; Time 30 min): 0.392 % dose/g; G.I. tract ([1]; Time 30 min): 5.08; Urine ([1]; Time 30 min): 44.71; Blood ([1]; Time 180 min): 0.048 % dose/g; G.I. tract ([1]; Time 180 min): 3.71; Urine ([1]; Time 180 min): 80.62; inflam muscle ([1]; Time 30 min): 0.154 % dose/g; inflam muscle ([1]; Time 180 min): 0.026 % dose/g; Uninfl muscle ([1]; Time 30 min): 0.052 % dose/g; Uninfl muscle ([1]; Time 180 min): 0.006 % dose/g; Inflam:Uninfl ([1]; Time 30 min): 3.6; Inflam:Uninfl ([1]; Time 180 min): 4.7
Pic-Ser-Cys(Acm)-Gly-Asp-Gly-TKPPR (Picolinoyl-SC(Acm)GDGTKPPR) [PicSerCys(Acm) GDG TKPPR] | 0.228 |  | 63.1 | 0.166 | 0.034 | 4.9 | 
